Experimental data published in paper PMC8652540.

Molecular target: SARS-CoV-2 nucleocapsid protein (NCAP, N protein) (SARS-CoV-2, UniProt P0DTC9 1-419)
Assay: EMSA
Conditions: protein: recombinant; tags: N-terminal GFP and His (N-GFP-NCAP-His, pET-28a(+)-TEV) as purified; EMSA text says only recombinant NCAP; chain copies: 2; single strand (legend says 24 bp)

UGCUUACGGUUUCGUCCGUGUUGC (ssRNA) [5'UTR leader RNA probe]
binding result: binds
